How the values were obtained:
Assay in all cases: holdup assay
Parameters in all cases: key: below the threshold = too weak to quantify, mostly under pKd 3.1 to 4
Conditions in all cases: plain residues with an end cap or a label only (N-terminal biotin on a linker: ado-ado)
[1] = biological target: AHNAK1, Q09666
[2] = biological target: T1, APBA3_1, O96018
T1 sequence (O96018 389-490, limits assumed, looked up): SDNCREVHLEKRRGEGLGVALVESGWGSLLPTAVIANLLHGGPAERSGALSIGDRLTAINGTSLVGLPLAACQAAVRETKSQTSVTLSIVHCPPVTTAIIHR

[3] = biological target: T2, DLG3_3, Q92796
T2 sequence (Q92796 374-475, limits assumed, looked up): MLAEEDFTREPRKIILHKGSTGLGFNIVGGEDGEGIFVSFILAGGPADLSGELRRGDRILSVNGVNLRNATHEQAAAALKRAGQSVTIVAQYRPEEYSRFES

[4] = biological target: DLG4_3, P78352
[5] = biological target: DLG5_1, Q8TDM6
[6] = biological target: FRMPD2_3, Q68DX3
[7] = biological target: FRMPD4, Q14CM0
[8] = biological target: GIPC2, Q8TF65
[9] = biological target: GORASP1, Q9BQQ3
[10] = biological target: GRID2IP_2, A4D2P6
[11] = biological target: IL16_3, Q14005
[12] = biological target: Inadl_1, Q8NI35
[13] = biological target: Inadl_4, Q8NI35
[14] = biological target: Inadl_5, Q8NI35
[15] = biological target: Inadl_9, Q8NI35
[16] = biological target: LIMK2, P53671
[17] = biological target: LNX1_3, Q8TBB1
[18] = biological target: T3, LNX2_3, Q8N448
T3 sequence (Q8N448 463-564, limits assumed, looked up): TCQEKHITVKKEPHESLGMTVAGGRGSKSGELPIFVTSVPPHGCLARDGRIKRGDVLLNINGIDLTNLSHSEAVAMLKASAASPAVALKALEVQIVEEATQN

[19] = biological target: T4, LRRC7, Q96NW7
T4 sequence (Q96NW7 1440-1537, limits assumed, looked up): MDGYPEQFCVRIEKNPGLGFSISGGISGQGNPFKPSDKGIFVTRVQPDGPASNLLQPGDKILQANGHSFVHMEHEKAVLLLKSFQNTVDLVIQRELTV

[20] = biological target: MAGI1_2, Q96QZ7
[21] = biological target: T5, NHERF3_4, Q5T2W1
T5 sequence (Q5T2W1 373-468, limits assumed, looked up): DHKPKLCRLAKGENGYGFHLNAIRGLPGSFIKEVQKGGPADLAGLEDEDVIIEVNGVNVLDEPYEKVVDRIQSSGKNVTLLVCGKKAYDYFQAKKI

[22] = biological target: NHERF4_4, Q86UT5
[23] = biological target: NOS1, P29475
[24] = biological target: T6, PDZD2_2, O15018
T6 sequence (O15018 329-429, limits assumed, looked up): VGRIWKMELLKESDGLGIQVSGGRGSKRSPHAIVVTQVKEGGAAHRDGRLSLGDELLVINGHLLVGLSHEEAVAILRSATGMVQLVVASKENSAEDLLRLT

[25] = biological target: T7, PDZRN3_1, Q9UPQ7
T7 sequence (Q9UPQ7 244-349, limits assumed, looked up): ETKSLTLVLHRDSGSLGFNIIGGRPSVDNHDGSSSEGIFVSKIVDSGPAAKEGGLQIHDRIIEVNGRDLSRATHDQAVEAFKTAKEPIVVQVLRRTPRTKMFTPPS

[26] = biological target: T8, SHANK1, Q9Y566
T8 sequence (Q9Y566 658-767, limits assumed, looked up): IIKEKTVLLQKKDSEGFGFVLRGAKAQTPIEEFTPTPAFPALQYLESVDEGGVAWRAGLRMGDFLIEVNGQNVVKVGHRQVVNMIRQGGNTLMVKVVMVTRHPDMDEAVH

[27] = biological target: T9, SIPA1L2, Q9P2F8
T9 sequence (Q9P2F8 945-1036, limits assumed, looked up): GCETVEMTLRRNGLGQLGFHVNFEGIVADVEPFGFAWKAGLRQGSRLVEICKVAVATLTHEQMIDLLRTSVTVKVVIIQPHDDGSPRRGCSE

[28] = biological target: SNX27, Q96L92
[29] = biological target: TJP1_3, Q07157
TJP1_3, Q07157, sequence (Q07157 416-512): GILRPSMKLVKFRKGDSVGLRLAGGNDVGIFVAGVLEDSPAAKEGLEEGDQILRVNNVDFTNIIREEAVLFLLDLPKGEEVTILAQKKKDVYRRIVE

Inadl_5, Q8NI35, sequence (Q8NI35 673-780): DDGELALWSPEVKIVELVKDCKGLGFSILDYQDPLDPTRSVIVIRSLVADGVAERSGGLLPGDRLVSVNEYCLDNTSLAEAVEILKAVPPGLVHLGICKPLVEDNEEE
GORASP1, Q9BQQ3, sequence (Q9BQQ3 1-208): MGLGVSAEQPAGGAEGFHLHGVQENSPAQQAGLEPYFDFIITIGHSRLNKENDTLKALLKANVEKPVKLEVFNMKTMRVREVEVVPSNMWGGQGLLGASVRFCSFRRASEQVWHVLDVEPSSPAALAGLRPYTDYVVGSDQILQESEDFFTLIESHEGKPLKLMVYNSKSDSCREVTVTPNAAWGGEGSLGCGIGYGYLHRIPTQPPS
MAGI1_2, Q96QZ7, sequence (Q96QZ7 456-580): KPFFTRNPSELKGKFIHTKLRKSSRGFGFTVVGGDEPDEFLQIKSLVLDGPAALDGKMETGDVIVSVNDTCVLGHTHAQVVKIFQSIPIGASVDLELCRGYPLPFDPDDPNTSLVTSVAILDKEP
Inadl_4, Q8NI35, sequence (Q8NI35 547-651): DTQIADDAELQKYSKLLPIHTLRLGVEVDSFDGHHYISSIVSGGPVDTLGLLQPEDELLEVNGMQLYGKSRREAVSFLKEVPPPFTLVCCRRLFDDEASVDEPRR
Inadl_1, Q8NI35, sequence (Q8NI35 113-229): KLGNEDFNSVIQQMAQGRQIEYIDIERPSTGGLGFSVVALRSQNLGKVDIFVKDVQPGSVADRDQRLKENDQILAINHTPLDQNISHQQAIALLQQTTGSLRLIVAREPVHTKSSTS
GRID2IP_2, A4D2P6, sequence (A4D2P6 272-370): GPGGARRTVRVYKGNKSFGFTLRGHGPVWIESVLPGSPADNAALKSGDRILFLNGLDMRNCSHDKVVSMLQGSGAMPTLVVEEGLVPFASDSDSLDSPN
FRMPD2_3, Q68DX3, sequence (Q68DX3 1073-1166): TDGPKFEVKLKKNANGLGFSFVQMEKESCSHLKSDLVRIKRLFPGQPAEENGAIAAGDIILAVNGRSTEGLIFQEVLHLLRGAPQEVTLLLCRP
GIPC2, Q8TF65, sequence (Q8TF65 112-203): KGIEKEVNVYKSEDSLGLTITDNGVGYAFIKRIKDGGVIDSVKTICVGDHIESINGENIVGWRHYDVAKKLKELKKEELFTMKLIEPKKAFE
DLG4_3, P78352, sequence (P78352 306-403): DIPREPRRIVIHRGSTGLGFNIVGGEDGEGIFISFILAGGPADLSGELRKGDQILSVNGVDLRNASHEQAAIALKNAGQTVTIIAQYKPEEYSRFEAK
LIMK2, P53671, sequence (P53671 143-248): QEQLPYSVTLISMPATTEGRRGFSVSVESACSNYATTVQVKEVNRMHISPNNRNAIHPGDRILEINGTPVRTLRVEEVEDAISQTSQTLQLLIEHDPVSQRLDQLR
AHNAK1, Q09666, sequence (Q09666 4-100): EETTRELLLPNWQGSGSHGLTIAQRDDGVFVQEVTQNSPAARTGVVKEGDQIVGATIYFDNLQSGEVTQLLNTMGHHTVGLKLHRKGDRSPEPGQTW
FRMPD4, Q14CM0, sequence (Q14CM0 67-160): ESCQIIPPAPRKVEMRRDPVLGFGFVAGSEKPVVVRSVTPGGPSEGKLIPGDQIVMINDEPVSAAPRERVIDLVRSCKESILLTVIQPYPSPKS
IL16_3, Q14005, sequence (Q14005 1107-1207): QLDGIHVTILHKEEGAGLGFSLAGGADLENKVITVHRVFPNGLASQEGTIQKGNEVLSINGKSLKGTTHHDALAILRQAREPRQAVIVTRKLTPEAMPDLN
Inadl_9, Q8NI35, sequence (Q8NI35 1530-1615): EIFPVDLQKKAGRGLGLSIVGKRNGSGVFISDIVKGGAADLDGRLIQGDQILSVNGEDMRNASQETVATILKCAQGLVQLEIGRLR
NOS1, P29475, sequence (P29475 9-101): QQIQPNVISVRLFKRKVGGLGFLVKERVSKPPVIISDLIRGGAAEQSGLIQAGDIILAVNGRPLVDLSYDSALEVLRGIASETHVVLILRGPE
LNX1_3, Q8TBB1, sequence (Q8TBB1 500-596): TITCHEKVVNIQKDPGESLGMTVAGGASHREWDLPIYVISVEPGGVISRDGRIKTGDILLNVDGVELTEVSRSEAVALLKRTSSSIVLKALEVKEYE
DLG5_1, Q8TDM6, sequence (Q8TDM6 617-713): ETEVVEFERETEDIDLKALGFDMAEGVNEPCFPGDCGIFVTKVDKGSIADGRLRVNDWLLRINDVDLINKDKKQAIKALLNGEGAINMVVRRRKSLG
NHERF4_4, Q86UT5, sequence (Q86UT5 464-550): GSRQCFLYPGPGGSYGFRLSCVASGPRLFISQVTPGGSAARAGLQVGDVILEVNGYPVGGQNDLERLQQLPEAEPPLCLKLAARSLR

For SKSLERATQL [COMMD3, Q9UBI1], the pKd [1] was “below the threshold”, the pKd [2] was “below the threshold” and the pKd [3] was 3.74. The pKd [4] was “below the threshold”, the pKd [5] was “below the threshold” and the pKd [6] was 3.49. It also gave a pKd [7] of 4.33, a pKd [8] of 3.49 and a pKd [9] of 3.78. For the same binder, the pKd [10] was 4.69, the pKd [11] was “below the threshold” and the pKd [12] was “below the threshold”. The pKd [13] was “below the threshold”, the pKd [14] was “below the threshold” and the pKd [15] was “below the threshold”. The pKd [16] was “below the threshold”, the pKd [17] was “below the threshold” and the pKd [18] was “below the threshold”. The pKd [19] was “below the threshold”, the pKd [20] was 3.85 and the pKd [21] was 4.67. For the same binder, the pKd [22] was “below the threshold”, the pKd [23] was 4.02 and the pKd [24] was 3.95. For the same binder, the pKd [25] was 4.11, the pKd [26] was 4.81 and the pKd [27] was 3.51. The pKd [28] was 4.25 and the pKd [29] was 3.51.

REVVMRVTTV [MARCHF9, Q86YJ5] was tested, and the pKd [1] was “below the threshold”, the pKd [2] was “below the threshold” and the pKd [3] was 4.64. For the same binder, the pKd [4] was 4.81, the pKd [5] was “below the threshold” and the pKd [6] was “below the threshold”. The pKd [7] was “below the threshold”, the pKd [8] was “below the threshold” and the pKd [9] was 4.31. For the same binder, the pKd [10] was 4.13, the pKd [11] was “below the threshold” and the pKd [12] was “below the threshold”. For the same binder, the pKd [13] was “below the threshold”, the pKd [14] was “below the threshold” and the pKd [15] was 3.75. The pKd [16] was “below the threshold”, the pKd [17] was “below the threshold” and the pKd [18] was “below the threshold”. For the same binder, the pKd [19] was “below the threshold”, the pKd [20] was 4.84 and the pKd [21] was “below the threshold”. For the same binder, the pKd [22] was “below the threshold”, the pKd [23] was 3.76 and the pKd [24] was 4.37. For the same binder, the pKd [25] was 3.81, the pKd [26] was “below the threshold” and the pKd [27] was “below the threshold”. The pKd [28] was 5.46 and the pKd [29] was “below the threshold”.

For LRYARPADAL [PPP1R3G, B7ZBB8], the pKd [1] was “below the threshold”, the pKd [2] was “below the threshold” and the pKd [3] was “below the threshold”. The pKd [4] was “below the threshold”, the pKd [5] was “below the threshold” and the pKd [6] was “below the threshold”. For the same binder, the pKd [7] was 3.66, the pKd [8] was “below the threshold” and the pKd [9] was “below the threshold”. For the same binder, the pKd [10] was “below the threshold”, the pKd [11] was “below the threshold” and the pKd [12] was “below the threshold”. The pKd [13] was “below the threshold”, the pKd [14] was “below the threshold” and the pKd [15] was “below the threshold”. The pKd [16] was “below the threshold”, the pKd [17] was “below the threshold” and the pKd [18] was “below the threshold”. For the same binder, the pKd [19] was “below the threshold”, the pKd [20] was “below the threshold” and the pKd [21] was “below the threshold”. For the same binder, the pKd [22] was “below the threshold”, the pKd [23] was 4.36 and the pKd [24] was “below the threshold”. For the same binder, the pKd [25] was “below the threshold”, the pKd [26] was “below the threshold” and the pKd [27] was “below the threshold”. The pKd [28] was 3.49 and the pKd [29] was “below the threshold”.

In the case of QELLEYETTV [XKR7, Q5GH72], the pKd [1] is reported as “below the threshold”, the pKd [2] is reported as “below the threshold” and the pKd [3] is reported as 3.88. For the same binder, the pKd [4] was “below the threshold”, the pKd [5] was 3.69 and the pKd [6] was 3.63. For the same binder, the pKd [7] was “below the threshold”, the pKd [8] was 4.38 and the pKd [9] was 4.23. The pKd [10] was 3.81, the pKd [11] was “below the threshold” and the pKd [12] was “below the threshold”. For the same binder, the pKd [13] was “below the threshold”, the pKd [14] was 3.55 and the pKd [15] was 3.89. For the same binder, the pKd [16] was “below the threshold”, the pKd [17] was “below the threshold” and the pKd [18] was “below the threshold”. For the same binder, the pKd [19] was “below the threshold”, the pKd [20] was 3.6 and the pKd [21] was “below the threshold”. For the same binder, the pKd [22] was “below the threshold”, the pKd [23] was “below the threshold” and the pKd [24] was 5.17. For the same binder, the pKd [25] was 4.33, the pKd [26] was 4.44 and the pKd [27] was “below the threshold”. The pKd [28] was 5.77 and the pKd [29] was “below the threshold”.
